Molecular target: T1, C5aR1 (Mus musculus, UniProt P30993)
T1 construct: endogenous in cells; host or cells: WT and 9V/null mice (mixed FVB/C57BL 6J/129SvEvBrd background), in vivo
T1 sequence (P30993 1-351): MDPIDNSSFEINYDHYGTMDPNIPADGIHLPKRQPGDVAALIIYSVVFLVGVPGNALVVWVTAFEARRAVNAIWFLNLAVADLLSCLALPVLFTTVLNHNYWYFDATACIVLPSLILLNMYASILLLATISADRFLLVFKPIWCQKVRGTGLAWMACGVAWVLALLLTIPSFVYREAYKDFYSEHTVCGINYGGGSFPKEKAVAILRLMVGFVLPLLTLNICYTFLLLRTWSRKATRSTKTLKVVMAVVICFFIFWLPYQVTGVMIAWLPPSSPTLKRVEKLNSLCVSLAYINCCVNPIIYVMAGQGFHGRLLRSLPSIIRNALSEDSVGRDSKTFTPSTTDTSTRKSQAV
Assay: C5aR antagonist A8^Δ71-73 (C5aRA) i.p. treatment of Gaucher disease-prone 9V/null mice
Format: in vivo
Conditions: for pro-inflammatory cytokine (and chemokine) production: DCs and T cells of C5aRA-treated 9V/null mice
Description: Sera from human patients with Gaucher disease (n=10) and healthy volunteers (n=15) were from the freezer and de-identified. Human patients with Gaucher disease were diagnosed at Cincinnati Children's Hospital Medical Center (CCHMC). […] The study was approved by the ethics committee at CCHMC. In vivo C5aR1 deficiency or blockade in 9V/null mice and in a CBE-induced mouse model of Gaucher disease. To assess the impact of genetic or pharmacological targeting of C5aR1 on the inflammatory response in Gaucher disease, WT (n=10) and C5aR1^−/− mice (n=10) were treated with conduritol B epoxide (CBE), which is an irreversible inhibitor of acid β-glucosidase^24. More specifically, both mouse strains were injected intraperitoneally (i.p.) with 100 mg CBE/kg body weight or vehicle (PBS)/day for up to 60 days, which was the termination point of these experiments. After 60 days of the indicated treatment with CBE, immune cells (MΦs, DCs, and T cells) were purified from lung of these mouse strains and used for measurement of GC, costimulatory molecules, and several of the pro-inflammatory cytokines. In additional experiments, WT (n=15) or 9V/null mice (n=15) were injected with 100 μl of the C5aR antagonist A8^Δ71-73 (i.p. 0.5 mg/kg) or vehicle (100 μl, PBS) on five consecutive days. Five days after the final C5aRA treatment, liver, spleen and lung were separated and measured for GC accumulation. Further, DCs and CD4^+ T cells were purified from the lung of the indicated mouse strains and measured for costimulatory molecule expression and the production of pro-inflammatory cytokines. Preparation of tissue cells. Liver, spleen, lung and BM were harvested aseptically. Single cell suspensions from liver and lung were obtained from minced pieces that were treated with Liberase Cl (0.5 mg/mL) and DNase (0.5 mg/mL) in RPMI (45 min, 37° C.). Single cell suspensions from spleen were obtained by grinding and then filtration through a 70-micron cell strainer. […] For BM cells, femurs, tibias and humeri were flushed with sterile phosphate buffered saline (PBS), followed by RBC lysis (155 mM NH4Cl, 10 mM NaHCO3, 0.1 mM EDTA), passage through a strainer. Cells were then pelleted by centrifugation at 350×g. Viable cells were counted using a Neubauer chamber and trypan blue exclusion. DCs, MΦs, and CD4^+ T lymphocytes were purified from single cell suspensions of liver, spleen, and lung using CD11c, CD11b, and CD4 (L3T4) microbeads according to the manufacturer's protocol. The purity of the cells was ˜90%-95%.
Tissue cells were suspended in PBS containing 1% BSA. After incubation (15 min, 4° C.) with Fc©R-blocking antibody 2.4G2, cells were stained (45 min, 4° C.) with the following antibodies to identify APCs and T cell: CD4 for T cells; CD11b and F4/80 for Ms; and CD11b and CD11c for DCs. Cells were also stained with the respective isotype antibodies as controls. MΦs were first identified by their typical FSC/SSC pattern, F4/80 and CD11 expression. DCs were identified as CD11c^+CD11b^+ cells. Further, CD40, CD80 CD86 and C5aR1 expression was determined in tissue DCs. T cells were first characterized by their FSC/SSC pattern and CD3 staining. CD3^+T cells were further stained for CD4, CD40L and CD69 expression. A total of […] were acquired for each cell type isolated from the different organs. Specific surface expression was assessed relative to the expression of the corresponding isotype control antibody. Fortessa-I, Fortessa-II, and LSRII flow cytometers were used to characterize the cells. FCS express (version 4; DeNovo Software) was used to analyze the data.
Lipids were extracted from tissues (5 mg; liver, spleen, and lung), purified immune cells, (e.g., MΦ, DCs, and CD4^+T) and GC-specific IgG2a by chloroform and methanol^2, 25, 26. […]

[1] = C5aRA-treated 9V/null mice, i.p. 0.5 mg/kg on five consecutive days, CD68+ immunohistochemistry
[2] = C5aRA-treated vs vehicle-injected 9V/null mice, ESI-LC-MS/MS
[3] = DC/CD4+ T cell co-culture 48 h from C5aRA-treated mice, ELISA
[4] = in response to C5aRA treatment, flow cytometry

B1: Thr Leu Gln Lys Lys Ile Glu Glu Ile Ala Ala Lys Tyr Lys His Ser Val Val Lys Lys Cys Cys Tyr Asp Gly Ala Ala Val Asn Asn Asp Glu Thr Cys Glu Gln Arg Ala Ala Arg Ile Ser Leu Gly Pro Arg Cys Ile Lys Ala … (protein)
chain: TLQKKIEEIAAKYKHSVVKKCCYDGAAVNNDETCEQRAARISLGPRCIKAFTECCVVASQLRANISFKRS
modifications: mutant C5a-(1-66, Cys27A1a) -A8B-Del. 71-73 of human C5a
notes: positions 27 and 68-71 of human C5a mutated and positions 72-74 deleted
C5aRA-treated 9V/null mice
  co-stimulatory molecule expression in DCs and CD4+ T cells: marked reduction
[1]
  MΦ infiltration of the liver: substantially reduced
  MΦ infiltration of the lung: substantially reduced
  MΦ infiltration of the spleen: substantially reduced
C5aRA-treated 9V/null mice, listed as C5aR antagonist A8^Δ71-73
  co-stimulatory molecule expression in DCs and CD4+ T cells: decreased levels
C5aRA-treated 9V/null mice, liver and spleen (FIG. 12)
  GCs: marked reduction
[2]
  GC storage in liver: significantly decreased
  GC storage in lung: significantly decreased
  GC storage in spleen: significantly decreased
[3]
  IFN-γ production: markedly decreased
  IL-1 production: markedly decreased
  IL-6 production: markedly decreased
  IL-17 production: markedly decreased
  TNF-α production: markedly decreased
  pro-inflammatory cytokine (and chemokine) production: marked reduction
Listed as C5aR antagonist A8^Δ71-73
  pro-inflammatory cytokine (and chemokine) production: less
MΦs of treated 9V/null mice
  GC accumulation in MΦs: marked reduction
[4]
  CD40L expression in CD4+ T cells: significantly reduced
  CD40 expression in pulmonary DCs: significantly reduced
  CD69 expression in CD4+ T cells: significantly reduced
  CD80 expression in pulmonary DCs: significantly reduced
  CD86 expression in pulmonary DCs: significantly reduced
Mouse model of Gaucher disease, i.p.
  MΦs, DC and T cells mediated immune inflammation: significantly reduces
Treated 9V/null mice
  loss of CD41+ platelets: decreased loss
  loss of Ter119+ RBCs: decreased loss

From patent US11324803B2, “Methods and compositions for treatment of Gaucher Disease via modulation of C5a receptor” (Children's Hospital Medical Center, priority 2015, dated 2022)
